Data set [1] has as its system HCT 116 colon cancer cell line. Description: In vitro cytotoxicity, WST-1 viability test. It counts as cell-based. The following applies: mean of 3 independent experiments. As to the method:
The cytotoxicity of different drug conjugates was evaluated using the HCT 116 colon cancer cell line and was compared to the cytotoxicity of the free drug (doxorubicin, mitomycin C or paclitaxel). Cells were seeded at 8 000 cells/well and maintained in Mc Coy medium supplemented with 10% fetal bovine serum for 24 hours before treatment. Cells were incubated with increasing concentrations of drugs or conjugates at 37°C, 5% CO2. The medium was then removed and a WST-1 test (purchased from Roche) was performed according to the manufacturer's instructions. The cytotoxicity of the tested conjugates was expressed as the molar concentration inhibiting 50% of the cell viability (IC50), calculated using Graph Pad Prism 3.02 software. Experimental data are presented as the mean of three independent experiments performed in duplicate.
Table 1: Drug concentration that inhibits 50% of cell viability (IC50) using the HCT 116 cell line. Data represent the mean value of 3 independent experiments. After the indicated exposure time at 37°C, cells were rinsed and a viability assay (WST1 test) was performed to determine IC50.

A short description of data set [2]: In vitro human plasma stability of drug conjugates (HPLC). To be noted: for remaining at 6 h, 100 µM: 100 µM paclitaxel conjugates, read-out: plasma stability (% conjugate). It counts as in vitro ADME. Here is the method:
Human plasma (citrated human blood was centrifuged at 600 g for 10 min at +4°C, plasma was recovered and aliquots stored at -20°C) was used to assess the stability of the following drug conjugates: Suc-ALAL-doxorubicin, Suc-βALAL-doxorubicin, TA-ALAL-doxorubicin, Suc-βALAL-MMC, TA-ALAL-MMC, Suc-βALAL-paclitaxel and TA-ALAL-paclitaxel. The drug conjugates (50 µM doxorubicin or MMC, 100 µM paclitaxel conjugates) were incubated at 37°C with human plasma either for 0, 2 or 6 hours, 50 µL of sample were collected at each time point and extraction was performed immediately.
For the doxorubicin conjugate and metabolites, 150 µL of acetonitrile was added to the 50 µL samples. Samples were vortexed and centrifuged for 10 min at 13 000 rpm at room temperature. 100 µL were harvested and 200 µL of 2% ammonium formate pH 4.0 were added before centrifugation (10 min at 13 000 rpm). HPLC analysis (at 560 nm) was performed using the supernatant.
For MMC conjugate and metabolites were extracted prior to HPLC analysis. 100 µL of acetonitrile was added to the 50 µL of sample, prior to vortexing (10 seconds) and centrifugation (10 min at 13 000 rpm) at room temperature. 50 µL of supernatant was recovered and mixed with 150 µL of Phosphate Buffer Saline (PBS) 1X. After centrifugation (10 min at 13 000 rpm), 150 µL of supernatant were collected for HPLC analysis. Stability and reactivation were evaluated by HPLC analysis (at 270 nm) and MMC conjugate and metabolite peak areas were compared.
For the paclitaxel conjugate and metabolites, 150 µL of acetonitrile was added to 50 µL of sample, vortexed and centrifuged for 10 min at 13 000 rpm at room temperature. 100 µL of supernatant was recovered and mixed with 100 µL of water. After centrifugation (10 min at 13 000 rpm), the supernatant was collected for HPLC analysis (at 230 nm).

Data set [3] has as its system LS 174T tumors. Description: In vivo anti-tumoral efficacy of doxorubicin conjugates in the LS 174T tumor model. Also noted: species or system NMRI nude mice. The text has this:
(§1) Treatments were initiated when the tumors had reached a size of 100 mm^3 (calculated using the following formula: [length x width^2]/2). […] During the course of the experiment, clinical signs, body weight and tumor volume were controlled twice a week. Results are presented as the evolution of mean tumor volume as a function of time. Optimal T/C (ratio of mean tumor volume of treated versus control mice) values were used as a measure of treatment efficacy. The optimal T/C% reflects the maximal tumor growth inhibition achieved. The experiment was repeated twice.

Data set [4] in a line: In vivo toxicity of doxorubicin conjugates in LS 174T tumor-bearing nude mice (i.v.). The following applies: for equitoxic dose: i.v. As to the method: Toxicity studies were conducted in LS 174T tumor-bearing nude mice following intravenous administration. […] LS 174T tumors were established by a subcutaneous implantation of cells (3 x 10^7 cells injected) in the right flank of 7 weeks old female NMRI nude mice (Janvier, France). The day of the first injection, animals were randomly assigned to groups of 6 animals. The TA-ALAL-doxorubicin and Suc-ALAL-doxorubicin conjugates were dissolved in saline and Suc-βALAL-doxorubicin was prepared in glucose 5%. All conjugates were delivered by bolus intravenous injection (i.v.) in the lateral tail vein at 10 µL/g. During the course of the experiment, clinical signs and body weight were controlled at least twice a week. The experiment was repeated twice. Table 2: In vivo toxicity of TA-ALAL-doxorubicin conjugate compared to Suc-βALAL-doxorubicin and Suc-ALAL-doxorubicin in LS 174T tumor-bearing mice.

In data set [5] the test system is LS 174T tumors. As to the kind of experiment: In vivo anti-tumoral efficacy of mitomycin C conjugates in the LS 174T tumor model. Set-up: species or system NMRI nude mice.
Text: as §1
The in vivo anti-tumoral efficacy of TA-ALAL-MMC was compared to that of Suc-βALAL-MMC in the LS 174T tumor model. The establishment of the LS 174T tumors and the treatments were carried out as previously described in Example V. TA-ALAL-MMC conjugate was dissolved in saline and Suc-βALAL-MMC conjugate was prepared in 3% DMSO in Sodium phosphate buffer (15mM). […] During the course of the experiment, clinical signs, body weight and tumor volume were controlled twice a week. The experiment was repeated twice. Table 4: Anti-tumoral efficacy of TA-ALAL-MMC compared to Suc-βALAL-MMC in the LS 174T tumor model.

Where [6] appears, read: Experiment 1, dose 67.7 µmol/kg i.v., groups of 6 animals.
[7] abbreviates: Experiment 1, dose 67.7 µmol/kg i.v., LS 174T tumor-bearing mice.
Setting [8] is: Experiment 1, dose 67.7 µmol/kg i.v.
[9] abbreviates: Experiment 2, LS 174T tumor-bearing mice.
Where [10] appears, read: after 6 hours in human plasma at 37°C.
The mark [11] stands for this setting: Experiment 2, dose 77.4 µmol/kg i.v.
The mark [12] stands for this setting: Experiment 1, dose 60 µmol/kg i.v.
Where [13] appears, read: Experiment 2, dose 80 µmol/kg i.v.

Where two headings read alike, the source gives them in different places.

Turning to `CO[C@@]12[C@H](COC(N)=O)C3=C(C(=O)C(C)=C(N)C3=O)N1C[C@@H]1N[C@@H]12` [Mitomycin C (MMC), mitomycin C], inhibition in data set [1] (incubation time 24 h) was half-maximal at 5 µM (IC50).

For `COc1cccc2c1C(=O)c1c(O)c3c(c(O)c1C2=O)CC(O)(C(=O)CO)CC3OC1CC(NC(=O)C(CC(C)C)NC(=O)C(C)NC(=O)C(CC(C)C)NC(=O)C(C)NC(=O)CCC(=O)O)C(O)C(C)O1` (centres unmarked) [Suc-ALAL-dox, Suc-ALAL-doxorubicin], the 50% inhibitory concentration (IC50) in data set [1] (incubation time 48 h) was 10 µM. In data set [2] (human, plasma), the remaining at 2 h, 50 µM stood at 80% and the remaining at 6 h, 50 µM was 54%. In addition, the animals died in the data set on LS 174T tumors [3] (setting [6]) was 3 animals died. In addition, the “Maximal body weight loss %” value in data set [4] (setting [7]) is 36.1%. Further, in data set [4] (setting [6]), the dead animals stood at 3.

On to `COc1cccc2c1C(=O)c1c(O)c3c(c(O)c1C2=O)CC(O)(C(=O)CO)CC3OC1CC(NC(=O)C(CC(C)C)NC(=O)C(C)NC(=O)C(CC(C)C)NC(=O)CCNC(=O)CCC(=O)O)C(O)C(C)O1` (centres unmarked) [Suc-βALAL-dox, Suc-βALAL-doxorubicin], for which, in data set [1] (incubation time 48 h), the IC50 was above 10 µM. Besides, in data set [2] (human, plasma), the remaining at 2 h, 50 µM turned out to be 77.2% and the remaining at 6 h, 50 µM stood at 47.5%. Besides, in the data set on LS 174T tumors [3] (setting [8]), the “Optimal T/C (%)” value was 52%. For the same compound, in the data set on LS 174T tumors [3] (Experiment 2, dose 47.4 µmol/kg i.v.), the “Optimal T/C (%)” value was 52%. Besides, in data set [4] (setting [9]), the equitoxic dose was found to be 47.4 µmol/kg. Further, the “Maximal body weight loss %” value in data set [4] (mouse, in vivo, iv) worked out at 15.9%.

As to `CC(=O)O[C@H]1C(=O)[C@@]2(C)[C@H]([C@H](OC(=O)c3ccccc3)[C@]3(O)C[C@H](OC(=O)[C@H](OC(=O)C(CC(C)C)NC(=O)C(C)NC(=O)C(CC(C)C)NC(=O)CCNC(=O)CCC(=O)O)[C@@H](NC(=O)c4ccccc4)c4ccccc4)C(C)=C1C3(C)C)[C@]1(OC(C)=O)CO[C@@H]1C[C@@H]2O` (some centres unmarked) [Suc-βALAL-paclitaxel], in data set [1] (incubation time 4h + 72 h), the half-maximal inhibitory concentration (IC50) was determined as 0.762 µM. For the same compound, the remaining at 6 h, 100 µM in data set [2] (setting [10]) worked out at 41%.

`COc1cccc2c1C(=O)c1c(O)c3c(c(O)c1C2=O)CC(O)(C(=O)CO)CC3OC1CC(NC(=O)C(CC(C)C)NC(=O)C(C)NC(=O)C(CC(C)C)NC(=O)C(C)NC(=O)C2C(C(=O)O)C(C(=O)O)C2C(=O)O)C(O)C(C)O1` (centres unmarked) [TA-ALAL-dox, TetraAcid-ALAL-doxorubicin] showed a half-maximal inhibitory concentration (IC50) in data set [1] (incubation time 48 h) above 10 µM. In addition, the remaining at 2 h, 50 µM in data set [2] (after 2 hours in human plasma at 37°C, 50 µM doxorubicin conjugates, read-out: percentage of intact conjugate) turned out to be 83%. Besides, the remaining at 6 h, 50 µM in data set [2] (after 6 hours in human plasma at 37°C, 50 µM doxorubicin conjugates, read-out: percentage of intact conjugate) was determined as 67%. Besides, the “Optimal T/C (%)” value is given as 42% in the data set with LS 174T tumors [3] (setting [8]) and 36% with LS 174T tumors [3] (setting [11]). Besides, the “Maximal body weight loss %” value in data set [4] (setting [7]) is recorded as 13.7%; in data set [4] (Experiment 2, dose 55.1 µmol/kg i.v.) it was 11.3%; in data set [4] (setting [11]) it was 17.9%. In data set [4] (setting [9]), this compound returned an equitoxic dose of 77.4 µmol/kg.

Take `CC(=O)O[C@H]1C(=O)[C@@]2(C)[C@H]([C@H](OC(=O)c3ccccc3)[C@]3(O)C[C@H](OC(=O)[C@H](OC(=O)C(CC(C)C)NC(=O)C(C)NC(=O)C(CC(C)C)NC(=O)C(C)NC(=O)C4C(C(=O)O)C(C(=O)O)C4C(=O)O)[C@@H](NC(=O)c4ccccc4)c4ccccc4)C(C)=C1C3(C)C)[C@]1(OC(C)=O)CO[C@@H]1C[C@@H]2O` (some centres unmarked) [TA-ALAL-paclitaxel, TetraAcid-ALAL-paclitaxel]: the 50% inhibitory concentration (IC50) in data set [1] (incubation time 4h + 72 h) came out at 10 µM. For the same compound, the remaining at 6 h, 100 µM in data set [2] (setting [10]) came to 43%.

Regarding `COc1cccc2c1C(=O)c1c(O)c3c(c(O)c1C2=O)C[C@@](O)(C(=O)CO)C[C@@H]3O[C@H]1C[C@H](N)[C@H](O)[C@H](C)O1` [doxorubicin (dox), doxorubicin], the IC50 in data set [1] (Homo sapiens, incubation time 48 h) was determined as 0.034 µM.

In the case of `CC(=O)O[C@H]1C(=O)[C@@]2(C)[C@H]([C@H](OC(=O)c3ccccc3)[C@]3(O)C[C@H](OC(=O)[C@H](O)[C@@H](NC(=O)c4ccccc4)c4ccccc4)C(C)=C1C3(C)C)[C@]1(OC(C)=O)CO[C@@H]1C[C@@H]2O` [paclitaxel], the IC50 in data set [1] (Homo sapiens, incubation time 4h + 72 h) is 0.02 µM.

Suc-βALAL-mitomycin C [Suc-βALAL-MMC] returned an IC50 in data set [1] (incubation time 24 h) of 67 µM. Besides, the “% of conjugates remaining” value in data set [2] (after 6 hours in human plasma at 37°C, 50 µM MMC conjugates) is 73%. Moreover, in the data set on LS 174T tumors [5] (setting [12]), the “Maximal body weight loss %” value is recorded as 14.5% and the “Optimal T/C (%)” value is reported as 48%. Also, in the data set on LS 174T tumors [5] (setting [13]), the “Maximal body weight loss %” value is 15.9% and the “Optimal T/C (%)” value is on record as 43%.

These data come from patent EP1977765A1, “Peptide prodrugs” (Diatos, priority 2007, dated 2008).
